From the DeepSol protein solubility set

Experiment: soluble on expression in E. coli; label from the status in PepcDB or PDB records

Sequence | soluble on expression in E. coli
MGSDKIHHHHHHVAISVAGGVRPGKIIEIEHRLYQQLILGKHKASPTLLDDLDLELEADANKLDVEREAILARLMKQIKAKEVFEAVSSQLHETVNNAIEHQLASPELVLAKSEINESQILLLELLLAKNLDATRLRPLISNLSWLCRDLTNMVNSPSFRARRPQSSDVRVTDIKLVMNYIGIENLRTIIPYFCLRNWLPSANAKLLWTTRKLWRYSIVSGIAANALAQLHNTDSALVYSSALLNQLGTSVVLSLSARLFDQTWGAWIREASSSRDKEVYDAVIATEFPAKAVFEQVLSHGHKLNWQLLELLKFEASPLTGLLKELDLTLSYRELSPQAALVARANCYAKVVLLEEMRQIDPQEKRLMFDYYELTEQEVLRLKAQNYRKLDLL | not soluble
MPEGILPIERDLLRFKEIVRGEVKKRVREFLTREELFGQVEGRLVSIPLPQLEIPKIVHGEPLGEGLGLGGPGEEALGPGGHIPVAELELEEFLDLVGEALRLPRLRPKGEGEVTEEALRHTTIARKGPRGLRHVRRTLKESLKRALQSGEYRPEDPLLVPEREDLRYKAPRRKPIPHAQAVVLFALDVSGSMREEELKLVKTLSFWITLWIKRHFPRLERRYLLHDAEAWEVPEEEFFKAREGGGTRISSALLLAEEILKAYPEAFYNRYLFHFSDGENWQGDTPLALEALRRLLPSLALYGYAQVESPYGQGHFLEEVQEALGGREGVALAAVRGREDLPVALKRLLGG | soluble
MLDLHLTMSNSMNYMKAATAYINLEALQHNLQRVKQQAPESKIMAVVKANGYGHGLRHIARHALGADAFGVARIEEALQLRASGVVKPILLLEGFYSPGDLPVLVTNNIQTVVHCEEQLQALEQAQLETPVMVWLKVDSGMHRLGVRPEQYQDFVARLHQCENVAKPLRYMSHFGCADELDKSTTVEQTELFLSLTQGCQGERSLAASAGLLAWPQSQLEWVRPGIIMYGVSPFVEKSAVQLGYQPVMTLKSHLIAVREVKAGESVGYGGTWTSQRDTKIGVIAIGYGDGYPRTAPNGTPVVVNGRRVPIAGRVSMDMLTVDLGPDACDRVGDEAMLWGNELPVEEVAAHIGTIGYELVTKLTSRVEMSYYGAGV | not soluble
MAHHHHHHMGSKYGSGNYQLFRALYKDLCDEIRREYYTKPPPPPPATRTTGASPSLVAAEAALEVHGSAGSGANDTSSGAAKQRSMAGGAGATSSSTQGGGMTAGSEREGSTVEAAHAARETAATPPSQPEETYGDGSWSVQHRPEDNVAVFHRGAVKRGRLAAVHAWARIELKDPPRLNAVLTFADWIPIEVCVERNGIVIHFSMAANEGGMHMRNVRVYEPKSAEERAALLDPSDDGEYARKNFYYDGPCLWHLELDMLNELYDVMQDHGVTLDWIRWAASWVFYLEHVNYVRWNLGMLEELIPSSLRGPEEDFLLPVEKALLAEPVEDWLRAHSI | not soluble
SAASEHRCVGCGFRVKSLFIQYSPGNIRLMKCGNCKEVADEYIECERMIIFIDLILHRPKVYRHVLYNAINPATVNIQHLLWKLVFAYLLLDCYRSLLLRKSDEESSFSDSPVLLSIKVRSFLFNGLN | soluble
MSAAEGAVVFSEEKEALVLKSWAIMKKDSANLGLRFFLKIFEIAPSARQMFPFLRDSDVPLETNPKLKTHAVSVFVMTCEAAAQLRKAGKITVRETTLKRLGGTHLKYGVADGHFEVTRFALLETIKEALPADMWGPEMRNAWGEAYDQLVAAIKQEMKPAE | soluble
MIRAVFFDFVGTLLSVEGEAKTHLKIMEEVLGDYPLNPKTLLDEYEKLTREAFSNYAGKPYRPIRDIEEEVMRKLAEKYGFKYPENFWEIHLRMHQRYGELYPEVVEVLKSLKGKYHVGMITDSDTEYLMAHLDALGIKDLFDSITTSEEAGFFKPHPRIFELALKKAGVKGEEAVYVGDNPVKDCGGSKNLGMTSILLDRKGEKREFWDKCDFIVSDLREVIKIVDELNGQ | soluble
MGSDKIHHHHHHMQCIRVGVIGAGGVAQVEHIPNLLKLHRQFKILGVYDPSRKVRAFVGEEFGLETFSDLDALLAMPLDAVVIASPDALHREQSLAAFARGLHVFCEKPLCYGAQDIDQLIAARDRAGKVLQVGYMKRFDPSYEAALNMLPGTARTLRSVSVEVNDPDAWPFIRHASTCRGDDVAAELIASTEARQREQVDRAVPGLDDPHAFRGFVGAYSSSIVHDVNAVHGLLDALGVADGEIVGASLFAKGEAGQGTVRLLDGQALWTMAHIATPGLPDYRERITLHFDDASLELEFPSPYLNHQPTRLTIRTGDGHTLSSRDIRSGYEEAFVEELKGFWSAIVEGTAVRNTAEHARRDMTLLAGLTRHHLDQSKQSGVRP | not soluble
